Biological target: Pyruvate kinase M2 (PKM2) (human (endogenous in MDA-MB-231 and MCF-7)) (UniProt P14618)
Assay: native gel or EMSA

Sequence of Pyruvate kinase M2 (PKM2), P14618 1-531 (enzyme; other documents disagree on this pair) (P14618 whole entry): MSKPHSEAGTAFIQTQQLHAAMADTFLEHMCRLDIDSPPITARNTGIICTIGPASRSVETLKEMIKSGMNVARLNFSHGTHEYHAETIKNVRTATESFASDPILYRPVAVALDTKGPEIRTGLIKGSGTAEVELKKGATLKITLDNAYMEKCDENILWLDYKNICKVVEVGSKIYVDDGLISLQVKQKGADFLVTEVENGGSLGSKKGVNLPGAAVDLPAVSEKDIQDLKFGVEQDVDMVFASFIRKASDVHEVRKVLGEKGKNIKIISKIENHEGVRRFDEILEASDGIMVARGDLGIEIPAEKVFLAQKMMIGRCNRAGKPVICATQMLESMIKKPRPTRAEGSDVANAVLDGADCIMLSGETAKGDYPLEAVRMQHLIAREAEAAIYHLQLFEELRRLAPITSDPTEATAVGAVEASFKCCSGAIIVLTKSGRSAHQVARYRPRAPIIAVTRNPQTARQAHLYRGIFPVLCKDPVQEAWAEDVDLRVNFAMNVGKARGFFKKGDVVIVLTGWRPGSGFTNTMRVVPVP

stoichiometry N: 2
Substance: Pyruvate kinase M2 (PKM2), P14618 1-531 (enzyme; other documents disagree on this pair)
